In US20240166752A1 (HEFEI TG IMMUNOPHARMA, published 2024):

Assays:
[1] = molecular target: T1, MICA*004α3-Fc fusion protein; experiment: ELISA, MICA*004α3-Fc coated
T1 construct: also called MICAα3*004 variant
Source text: (§1) The binding characteristics of the MICA antibody and the α3 domains of MICA and MICB was detected by ELISA in this example. The obtained various MICA, MICB variant extracellular region α3 domains (MICAα3*-002, 004, 005, 008, MICBα3*-005) Fc fusion proteins (MICAα3-Fc, MICBα3-Fc) and control antibody IgG were coated into a 96-well plate by the inventors. The signal strength after antibody addition was used to determine the binding characteristics of the antibody to MICA and MICB.
(§2) The fusion protein (MICA*002α3-Fc, amino acid sequence is as set forth in SEQ ID NO: 33; MICA*004α3-Fc, the amino acid sequence is as set forth in SEQ ID NO: 34; MICA*005α3-Fc, the amino acid sequence is as set forth in SEQ ID NO: 35; MICA*008α3-Fc, the amino acid sequence is as set forth in SEQ ID NO: 36; MICB*005α3-Fc, the amino acid sequence is as set forth in SEQ ID NO: 37) was diluted to 1 μg/ml with the PBS buffer and added to a 96-well plate in a volume of 100 μL/well and left overnight at 4° C. The PBS buffer solution was sucked off from the 96-well plate. The plate was washed 6 times with PBST (pH 7.2, PBS containing 0.1% Tween 20) buffer solution. 200 μL/well PBS/10% BSA was added and incubated at 37° C. for 2 hours for blocking. The blocking solution was removed. The plate was washed 6 times with PBST. […] The absorbance at […] was read with a microplate reader. […]

[2] = molecular target: T2, MICA extracellular domain α3 domain Fc fusion protein (MICA α3-Fc) (human); experiment: ELISA, MICAα3-Fc coated
T2 construct: also called MICA α3 domain
Protocol: The MICAα3-Fc fusion protein (amino acid sequence as set forth in SEQ ID NO: 24) was diluted to 1 μg/mL with PBS buffer and added to a 96-well plate in a volume of 100 μL/well and left overnight at 4° C. The PBS buffer solution was sucked off from the 96-well plate. The plate was washed 6 times with PBST (pH 7.2, PBS containing 0.1% Tween 20) buffer solution. 200 μL/well PBS/10% BSA was added and incubated at 37 °C for 2 hours for blocking. The blocking solution was removed. The plate was washed 6 times with PBST. The MICA antibodies to be tested were diluted to an appropriate concentration with 100 µL/well PBST/0.05% BSA, and incubated at 37 °C for 1 h. The reaction system was removed. The plate was washed 6 times with PBST. HRP (horseradish peroxidase)-labeled anti-mouse antibody secondary antibody (Boster, BA1050) was diluted with PBST/0.05% BSA at 100 μL/well and incubated for 1 h at 37° C. The plate was washed 6 times with PBST, and 80 μL/well TMB (tetramethylbenzidine) was added. After 3 min of incubation at room temperature, and 80 μL/well 4M sulfuric acid was added to terminate the reaction. The absorbance at […] was read with a microplate reader.

[3] = molecular target: T3, MICB*005α3-Fc fusion protein; experiment: ELISA, MICB*005α3-Fc coated
T3 construct: also called MICBα3*005 variant
Source text: as §1, §2

[4] = molecular target: T4, recombinant MICA extracellular region Fc fusion protein (MICA-Fc) (human); experiment: ELISA, MICA-Fc coated
T4 construct: also called human MICA
Protocol: The ELISA assay was used to detect the binding characteristics of the MICA antibody obtained in Example 1. The MICA extracellular region Fc fusion protein (MICA-Fc) as described above was coated into a 96-well plate. The signal strength after antibody addition was used to determine the binding characteristics of the antibody to MICA.
The MICA-Fc fusion protein (amino acid sequence as set forth in SEQ ID NO: 23) was diluted to 1 μg/mL with PBS buffer and added to a 96-well plate in a volume of 100 μL/well and left overnight at 4° C. The PBS buffer solution was sucked off from the 96-well plate. The plate was washed 6 times with PBST (pH 7.2, PBS containing 0.1% Tween 20) buffer solution. 200 μL/well PBS/10% BSA was added and incubated at 37 °C for 2 hours for blocking. The blocking solution was removed. The plate was washed 6 times with PBST. The MICA antibody to be tested was diluted to an appropriate concentration with 100 μL/well PBST/0.05% BSA, and incubated for 1 h at 37° C. The reaction system was removed. The plate was washed 6 times with PBST. HRP (horseradish peroxidase)-labeled anti-mouse antibody secondary antibody (Boster, BA1050) was diluted with PBST/0.05% BSA at 100 μL/well and incubated for 1 h at 37° C. After the incubation, the plate was washed 6 times with PBST, and 80 μL/well TMB (tetramethylbenzidine) was added. […] The absorbance at […] was read with a microplate reader.

[5] = molecular target: T5, MICA*008α3-Fc fusion protein; experiment: ELISA, MICA*008α3-Fc coated
T5 construct: also called MICAα3*008 variant
Source text: as §1, §2

[6] = molecular target: T6, MICA*002α3-Fc fusion protein; experiment: ELISA, MICA*002α3-Fc coated
T6 construct: also called MICAα3*002 variant
Source text: as §1, §2

[7] = molecular target: T7, MICA expressed on CHO-K1-MICA cells (human, UniProt Q29983 24-383); experiment: Western blot of CHO-K1-MICA lysate
T7 construct: Full-length entry as expressed from the lentiviral vector
T7 sequence: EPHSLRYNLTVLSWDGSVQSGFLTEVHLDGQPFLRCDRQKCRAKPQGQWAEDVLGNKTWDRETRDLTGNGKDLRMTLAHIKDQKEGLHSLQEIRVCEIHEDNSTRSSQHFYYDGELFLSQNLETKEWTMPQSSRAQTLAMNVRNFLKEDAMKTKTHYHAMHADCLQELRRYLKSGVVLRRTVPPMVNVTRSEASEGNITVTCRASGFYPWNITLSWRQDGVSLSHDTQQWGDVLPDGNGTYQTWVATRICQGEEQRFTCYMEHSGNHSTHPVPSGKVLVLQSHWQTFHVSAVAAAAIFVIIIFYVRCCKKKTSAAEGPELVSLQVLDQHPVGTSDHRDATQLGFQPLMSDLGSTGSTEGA
Protocol: The Western blot assay was used to determine the antigenic epitope characteristics of the MICA antibody.
CHO-K1-MICA, CHO-K1 cells constructed in Example 4 were washed twice with PBS. The RIPA lysate was then added for lysis for 15 min on ice. After 5 min of centrifugation at 15,000 g at 4° C., the supernatant was collected. The lysate supernatant was subjected to protein quantification using a BCA kit. Sample was then prepared with SDS-PAGE loading buffer and the sample addition amount is 50 μg/well. After electrophoresis, the sample was transferred to a nitrocellulose membrane and blocked with 5% nonfat dried milk at room temperature for 1 h. MICA antibody diluted at 1:2000 (w/v) was then added and incubated overnight at 4° C. The membrane was washed 5 min×6 times with 1%% PBST, then HRP-goat anti-mouse IgG diluted at 1:5000 (v/v) was added and incubated at room temperature for 1 h. The membrane was washed 5 min×6 times with 1%% PBST. Chemiluminescence was detected using ECL substrate development. The results are shown in FIG. 8, further showing that the antibody of the present disclosure can bind to a linear epitope of MICA protein.

Measured: binding result

T6 sequence (chain, as listed by the source limits assumed): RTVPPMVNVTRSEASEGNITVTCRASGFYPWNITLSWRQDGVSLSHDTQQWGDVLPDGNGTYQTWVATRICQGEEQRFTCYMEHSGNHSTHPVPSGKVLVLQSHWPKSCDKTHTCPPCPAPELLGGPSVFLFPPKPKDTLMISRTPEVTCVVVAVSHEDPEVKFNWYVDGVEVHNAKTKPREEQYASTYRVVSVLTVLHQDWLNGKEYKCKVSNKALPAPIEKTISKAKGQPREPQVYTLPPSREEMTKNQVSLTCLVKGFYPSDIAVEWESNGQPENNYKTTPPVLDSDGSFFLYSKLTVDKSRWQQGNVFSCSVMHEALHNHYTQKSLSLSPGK
T1 sequence (chain, as listed by the source limits assumed): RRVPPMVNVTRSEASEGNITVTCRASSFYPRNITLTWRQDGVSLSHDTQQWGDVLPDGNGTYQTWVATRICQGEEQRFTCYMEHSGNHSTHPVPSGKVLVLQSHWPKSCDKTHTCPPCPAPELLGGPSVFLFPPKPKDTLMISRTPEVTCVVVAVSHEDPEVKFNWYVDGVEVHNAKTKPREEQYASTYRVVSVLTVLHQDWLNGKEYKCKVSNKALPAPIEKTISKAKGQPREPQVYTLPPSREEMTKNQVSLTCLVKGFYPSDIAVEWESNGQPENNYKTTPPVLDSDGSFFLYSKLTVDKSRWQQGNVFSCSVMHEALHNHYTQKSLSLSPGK
T2 sequence (chain, as listed by the source limits assumed): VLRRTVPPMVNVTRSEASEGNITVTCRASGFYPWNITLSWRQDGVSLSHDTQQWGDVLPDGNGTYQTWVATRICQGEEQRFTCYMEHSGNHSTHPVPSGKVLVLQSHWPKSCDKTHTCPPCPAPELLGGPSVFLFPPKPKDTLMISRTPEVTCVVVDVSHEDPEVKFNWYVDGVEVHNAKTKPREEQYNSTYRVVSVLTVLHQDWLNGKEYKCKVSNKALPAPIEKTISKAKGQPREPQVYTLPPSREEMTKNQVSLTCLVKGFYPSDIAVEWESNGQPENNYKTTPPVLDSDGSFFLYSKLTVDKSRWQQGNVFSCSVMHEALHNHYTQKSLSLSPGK
T5 sequence (chain, as listed by the source limits assumed): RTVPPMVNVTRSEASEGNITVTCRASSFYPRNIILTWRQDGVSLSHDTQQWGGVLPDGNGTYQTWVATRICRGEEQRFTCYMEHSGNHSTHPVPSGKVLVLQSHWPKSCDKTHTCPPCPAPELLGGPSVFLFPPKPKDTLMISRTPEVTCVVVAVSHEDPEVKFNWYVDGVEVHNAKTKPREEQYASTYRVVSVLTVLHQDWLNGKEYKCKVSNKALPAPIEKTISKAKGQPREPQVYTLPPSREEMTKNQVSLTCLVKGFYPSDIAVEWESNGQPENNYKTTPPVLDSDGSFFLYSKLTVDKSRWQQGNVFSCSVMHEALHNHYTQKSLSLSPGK
T3 sequence (chain, as listed by the source limits assumed): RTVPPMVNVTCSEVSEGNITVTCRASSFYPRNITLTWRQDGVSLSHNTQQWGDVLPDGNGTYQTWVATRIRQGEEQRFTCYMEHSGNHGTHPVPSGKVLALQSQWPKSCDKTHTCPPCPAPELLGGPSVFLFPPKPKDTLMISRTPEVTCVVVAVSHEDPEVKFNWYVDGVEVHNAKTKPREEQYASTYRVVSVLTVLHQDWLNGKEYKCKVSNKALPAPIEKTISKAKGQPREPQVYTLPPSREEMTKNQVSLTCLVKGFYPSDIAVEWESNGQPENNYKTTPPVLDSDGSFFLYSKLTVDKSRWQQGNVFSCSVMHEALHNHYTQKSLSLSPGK

B1: MICA antibody 5A1 (murine monoclonal antibody against human MICA) (antibody, V domains shown)
VH: QVQLKQSGPGLVQPSQSLSITCIVSGFSLTTYGVHWVRQSPGKGLEWLGMIWTDGTTDYNAAFISRLSINKDNSKSQVFLKMNSLQADDTGIYYCVRKGHGYYYAMDYWGQGTSVTVSS
VL: QILLTQSPAILSASLGERVTMTCTASSSVSSSYLHWYQQKPGSSPKLWIYSTSNLASGVPARFSGGGSGTSYSLTVSNMEAEDAATYYCHQYHRSPFTFGSGTKLEIK
notes: Murine monoclonal antibody from a hybridoma; also called No. 5A1; the antibody of the present disclosure
binds: [1] | [2] | [3] | [4] | [5] | [6] | [7]
